Experimental data taken from PMC3847041, “Role of N-Cadherin cis and trans Interfaces in the Dynamics of Adherens Junctions in Living Cells” (PLoS ONE, 2013).
Each block holds one molecule with its values, some of them ahead of it.

Assays:
[1] = molecular target: N-cadherin-V81D/V174D fluorescent fusion protein (cis double mutant); assay: FRET or BRET; ratiometric FRET (Venus to Cerulean fluorescence over time) at a junction between one Venus- and one Cerulean-expressing living COS7 cell; 100 ms interval for 35 sec; baseline 10-15 sec, then the Ca2+ chelator BAPTA added to 20 mM final
[2] = molecular target: N-cadherin-V81D/V174D fluorescent fusion protein (cis double mutant); assay: FRET or BRET; acceptor bleach FRET at junctions between living COS7 cells of two mixed populations, one expressing the Venus (acceptor) and the other the Cerulean (donor) copy; trans interaction across the junction; FRET ratio = (IpostDonor - IpreDonor)/IpostDonor
[3] = molecular target: N-cadherin-W2A fluorescent fusion protein (strand-swap mutant); assay: as above
[4] = molecular target: N-cadherin-W2A fluorescent fusion protein (strand-swap mutant); assay: FRET or BRET; ratiometric FRET (Venus to Cerulean fluorescence over time) at a junction between one Venus- and one Cerulean-expressing living COS7 cell; 100 ms interval for 35 sec; baseline 10-15 sec, then the Ca2+ chelator BAPTA added to 20 mM final
[5] = molecular target: N-cadherin-R14E fluorescent fusion protein (X-dimer mutant); assay: as above
[6] = molecular target: N-cadherin-R14E fluorescent fusion protein (X-dimer mutant); assay: FRET or BRET; acceptor bleach FRET at junctions between living COS7 cells of two mixed populations, one expressing the Venus (acceptor) and the other the Cerulean (donor) copy; trans interaction across the junction; FRET ratio = (IpostDonor - IpreDonor)/IpostDonor
[7] = molecular target: the molecule itself; assay: FRET or BRET; ratiometric FRET (Venus to Cerulean fluorescence over time) at a junction between one Venus- and one Cerulean-expressing living COS7 cell; 100 ms interval for 35 sec; baseline 10-15 sec, then the Ca2+ chelator BAPTA added to 20 mM final
[8] = molecular target: the molecule itself; assay: FRET or BRET; acceptor bleach FRET at junctions between living COS7 cells of two mixed populations, one expressing the Venus (acceptor) and the other the Cerulean (donor) copy; trans interaction across the junction; FRET ratio = (IpostDonor - IpreDonor)/IpostDonor

- ratiometric FRET ratio before BAPTA [1]: 99.6%
- FRET ratio (acceptor bleach) [2]: 22.4%
Molecule: N-cadherin-V81D/V174D fluorescent fusion protein (cis double mutant) (natural protein)

- FRET ratio (acceptor bleach) [3]: 29.4%
Molecule: N-cadherin-W2A fluorescent fusion protein (strand-swap mutant)

- ratiometric FRET ratio before BAPTA [4]: 98.6%
Molecule: N-cadherin-W2A fluorescent fusion protein (strand-swap mutant) (natural protein)

- ratiometric FRET ratio after 20 mM BAPTA [5]: 98.8%
- ratiometric FRET ratio before BAPTA [5]: 99.2%
- FRET ratio (acceptor bleach) [6]: 14%
Molecule: N-cadherin-R14E fluorescent fusion protein (X-dimer mutant) (natural protein)

B1: N-cadherin-WT fluorescent fusion protein (N-cadherin-Venus / N-cadherin-Cerulean) (natural protein, UniProt P15116 160-906, looked up)
chain: DWVIPPINLPENSRGPFPQELVRIRSDRDKNLSLRYSVTGPGADQPPTGIFIINPISGQLSVTKPLDRELIARFHLRAHAVDINGNQVENPIDIVINVIDMNDNRPEFLHQVWNGSVPEGSKPGTYVMTVTAIDADDPNALNGMLRYRILSQAPSTPSPNMFTINNETGDIITVAAGLDREKVQQYTLIIQATDMEGNPTYGLSNTATAVITVTDVNDNPPEFTAMTFYGEVPENRVDVIVANLTVTDKDQPHTPAWNAAYRISGGDPTGRFAILTDPNSNDGLVTVVKPIDFETNRMFVLTVAAENQVPLAKGIQHPPQSTATVSVTVIDVNENPYFAPNPKIIRQEEGLHAGTMLTTLTAQDPDRYMQQNIRYTKLSDPANWLKIDPVNGQITTIAVLDRESPNVKNNIYNATFLASDNGIPPMSGTGTLQIYLLDINDNAPQVLPQEAETCETPEPNSINITALDYDIDPNAGPFAFDLPLSPVTIKRNWTINRLNGDFAQLNLKIKFLEAGIYEVPIIITDSGNPPKSNISILRVKVCQCDSNGDCTDVDRIVGAGLGTGAIIAILLCIIILLILVLMFVVWMKRRDKERQAKQLLIDPEDDVRDNILKYDEEGGGEEDQDYDLSQLQQPDTVEPDAIKPVGIRRLDERPIHAEPQYPVRSAAPHPGDIGDFINEGLKAADNDPTAPPYDSLLVFDYEGSGSTAGSLSSLNSSSSGGDQDYDYLNDWGPRFKKLADMYGGGDD
notes: a fluorescent protein is inserted into the second extracellular cadherin repeat at position 151 of the mature protein; numbers count on: the mature protein; Self-association in trans: one cell population expresses the Venus copy (FRET acceptor), the other the Cerulean copy (FRET donor); both are written as this one molecule; also called N-cadherin-Venus-WT; WT-N-cadherin; source: COS7 cells, …
- ratiometric FRET ratio after 20 mM BAPTA [7]: 89.6%
- ratiometric FRET ratio before BAPTA [7]: 99.6%
- FRET ratio (acceptor bleach) [8]: 19.9%
